Assay results reported in publication PMC10901774 (2024).
Where no end group is shown, it is not given here. [ ]: non-standard residue; d: D form.

B1: recombinant CHIP (C-terminus of Hsc70-interacting protein) TPR domain (domain or fragment)
chain: GASPSAQELKEQGNRLFVGRKYPEAAACYGRAITRNPLVAVYYTNRALCYLKMQQHEQALADCRRALELDGQSVKAHFFLGQCQLEMESYDEAIANLQRAYSLAKEQRLNFGDDIPSALRIAKKKRWNSIEERR
modifications: biotinylated in the TR-FRET assay

Tests used:
[1] = target: B1; test: FP
[2] = target: FAM-Hsp70 peptide (peptide model of the heat shock protein 70 C-terminus), L-form (UniProt P0DMV8, 5(6)-carboxyfluorescein (FAM)); test: FRET
[3] = target: FAM-Hsp70 peptide (peptide model of the heat shock protein 70 C-terminus), D-form (UniProt P0DMV8, all residues D-amino acids; 5(6)-carboxyfluorescein (FAM)); test: FRET
[4] = target: p53-derived model peptide, FAM-labelled (L-form) (UniProt P04637, 5(6)-carboxyfluorescein (FAM)); test: FRET
[5] = target: p53-derived model peptide, FAM-labelled (D-form) (UniProt P04637, all residues D-amino acids; 5(6)-carboxyfluorescein (FAM)); test: FRET
Chain of p53-derived model peptide, FAM-labelled (D-form) (P04637 whole entry, looked up, tested part not stated): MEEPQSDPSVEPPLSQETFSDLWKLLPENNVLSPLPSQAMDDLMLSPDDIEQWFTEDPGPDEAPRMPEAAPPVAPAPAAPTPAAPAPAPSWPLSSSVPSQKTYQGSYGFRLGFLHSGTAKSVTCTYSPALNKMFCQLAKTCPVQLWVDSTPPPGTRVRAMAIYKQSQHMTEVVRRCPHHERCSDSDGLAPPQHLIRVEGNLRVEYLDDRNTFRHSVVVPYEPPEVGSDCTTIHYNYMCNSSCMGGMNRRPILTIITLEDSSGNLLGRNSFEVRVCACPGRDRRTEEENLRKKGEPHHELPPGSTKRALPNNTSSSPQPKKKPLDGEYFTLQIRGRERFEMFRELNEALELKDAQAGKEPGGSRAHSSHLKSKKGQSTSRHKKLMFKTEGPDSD

Chain of FAM-Hsp70 peptide (peptide model of the heat shock protein 70 C-terminus), L-form (P0DMV8 whole entry, looked up, tested part not stated): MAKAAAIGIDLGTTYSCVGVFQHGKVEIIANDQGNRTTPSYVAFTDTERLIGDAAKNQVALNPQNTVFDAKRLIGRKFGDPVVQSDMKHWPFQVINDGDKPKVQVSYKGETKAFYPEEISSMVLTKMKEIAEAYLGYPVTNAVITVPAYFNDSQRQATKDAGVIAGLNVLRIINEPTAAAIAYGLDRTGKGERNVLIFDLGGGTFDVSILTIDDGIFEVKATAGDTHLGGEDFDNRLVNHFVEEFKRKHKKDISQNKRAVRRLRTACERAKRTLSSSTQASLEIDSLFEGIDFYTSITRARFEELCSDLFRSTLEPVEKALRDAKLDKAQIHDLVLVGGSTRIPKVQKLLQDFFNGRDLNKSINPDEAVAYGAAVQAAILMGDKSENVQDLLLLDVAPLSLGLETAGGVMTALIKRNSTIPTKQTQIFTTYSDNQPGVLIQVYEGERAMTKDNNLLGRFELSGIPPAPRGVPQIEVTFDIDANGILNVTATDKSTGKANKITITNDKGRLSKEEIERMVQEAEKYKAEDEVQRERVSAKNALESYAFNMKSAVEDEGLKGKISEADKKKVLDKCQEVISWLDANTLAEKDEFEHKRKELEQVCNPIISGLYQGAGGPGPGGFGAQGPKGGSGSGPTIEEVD
Chain of p53-derived model peptide, FAM-labelled (L-form) (P04637 whole entry, looked up, tested part not stated): as the sequence (P04637 whole entry, looked up, tested part not stated) above
Chain of FAM-Hsp70 peptide (peptide model of the heat shock protein 70 C-terminus), D-form (P0DMV8 whole entry, looked up, tested part not stated): as the sequence (P0DMV8 whole entry, looked up, tested part not stated) above

For [dP][dW][dW][dE][dC][dL][dS][dQ][dA][dD][dD][dC][dD][dF][dR] (staple (positions not given here)) [D-H202], the IC50 [1] was 1230 nM.

B1 was tested, and the Kd [2] was 4000 nM.

B2: synthetic L-CHIP (TPR domain) (domain or fragment)
chain: SPSAQELKEQGNRLFVGRKYPEAAACYGRAITRNPLVAVYYTNRALCYLKMQQHEQALADCRRALELDGQSVKAHFFLGQCQLEMESYDEAIANLQRAYSLAKEQRLNFGDDIPSALRIAKKKRWNSIEERR
modifications: biotin at the N-terminus through a PEG12 linker
B2 showed a Kd [2] of 3800 nM.

B3: synthetic D-CHIP (TPR domain) (domain or fragment)
chain: SPSAQELKEQGNRLFVGRKYPEAAACYGRAITRNPLVAVYYTNRALCYLKMQQHEQALADCRRALELDGQSVKAHFFLGQCQLEMESYDEAIANLQRAYSLAKEQRLNFGDDIPSALRIAKKKRWNSIEERR
modifications: all residues D-amino acids; biotin at the N-terminus through a PEG12 linker
Work on B3 yielded a Kd [3] of 3500 nM.

B4: recombinant MDM2 (mouse double minute 2 homolog) (domain or fragment)
chain: SQIPASEQETLVRPKPLLLKLLKSVGAQKDTYTMKEVLFYLGQYIMTKRLYDEKQQHIVYCSNDLLGDLFGVPSFSVKEHRKIYTMIYRNLVVVN
modifications: biotinylated in the TR-FRET assay
B4 showed a Kd [4] of 10 nM.

B5: synthetic D-MDM2 (domain or fragment)
chain: SQIPASEQETLVRPKPLLLKLLKSVGAQKDTYTMKEVLFYLGQYIMTKRLYDEKQQHIVYCSNDLLGDLFGVPSFSVKEHRKIYTMIYRNLVVVN
modifications: all residues D-amino acids; biotin at the N-terminus through a PEG12 linker
Work on B5 yielded a Kd [5] of 13 nM.
